One experiment addresses OsPEPR1 (rice). As to the kind of experiment: cell-based or functional assay.
Experiment [1] concerns the target T1, AtPEPR1 (Arabidopsis thaliana, UniProt Q9SSL9 29-1123, glycosylated (about 180 kD, about 150 kD after PNGase F)).
T1 sequence: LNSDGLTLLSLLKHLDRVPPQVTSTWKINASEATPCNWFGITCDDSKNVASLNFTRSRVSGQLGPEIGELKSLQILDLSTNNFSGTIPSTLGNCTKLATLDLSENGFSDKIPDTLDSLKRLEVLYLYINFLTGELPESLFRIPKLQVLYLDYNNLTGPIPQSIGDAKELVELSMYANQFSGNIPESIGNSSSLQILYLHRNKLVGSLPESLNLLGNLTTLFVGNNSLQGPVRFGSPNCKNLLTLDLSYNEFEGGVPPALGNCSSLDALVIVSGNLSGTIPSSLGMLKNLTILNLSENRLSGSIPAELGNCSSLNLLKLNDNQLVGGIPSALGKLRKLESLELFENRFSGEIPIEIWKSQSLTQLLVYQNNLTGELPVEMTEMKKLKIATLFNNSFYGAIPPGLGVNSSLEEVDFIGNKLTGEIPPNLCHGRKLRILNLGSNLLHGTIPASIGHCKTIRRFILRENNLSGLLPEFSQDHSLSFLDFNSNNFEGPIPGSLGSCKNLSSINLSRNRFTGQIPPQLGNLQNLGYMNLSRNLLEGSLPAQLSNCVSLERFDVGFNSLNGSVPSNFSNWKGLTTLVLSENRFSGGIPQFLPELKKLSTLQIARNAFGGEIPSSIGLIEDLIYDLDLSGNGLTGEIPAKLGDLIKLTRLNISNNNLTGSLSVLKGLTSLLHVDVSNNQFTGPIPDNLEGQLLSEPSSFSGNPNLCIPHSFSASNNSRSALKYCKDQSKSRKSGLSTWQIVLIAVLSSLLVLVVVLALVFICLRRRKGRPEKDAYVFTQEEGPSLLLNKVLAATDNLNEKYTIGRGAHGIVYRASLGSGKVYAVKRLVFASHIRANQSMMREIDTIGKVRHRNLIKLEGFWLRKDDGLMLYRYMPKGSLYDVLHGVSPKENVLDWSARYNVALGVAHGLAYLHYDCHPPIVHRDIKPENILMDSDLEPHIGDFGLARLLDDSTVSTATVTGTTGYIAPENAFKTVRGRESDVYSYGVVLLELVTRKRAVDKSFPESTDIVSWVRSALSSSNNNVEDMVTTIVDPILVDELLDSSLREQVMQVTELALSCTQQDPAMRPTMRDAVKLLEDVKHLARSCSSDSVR
As to the kind of experiment: cell-based or functional assay.

The target of experiment [2] is T2, AtPEPR2 (Arabidopsis thaliana, UniProt Q9FZ59 27-1088).
T2 construct: Coding region expressed under the CaMV 35S promoter in tobacco suspension-cultured cells; also called second AtPep1 receptor; At1g17750
T2 sequence: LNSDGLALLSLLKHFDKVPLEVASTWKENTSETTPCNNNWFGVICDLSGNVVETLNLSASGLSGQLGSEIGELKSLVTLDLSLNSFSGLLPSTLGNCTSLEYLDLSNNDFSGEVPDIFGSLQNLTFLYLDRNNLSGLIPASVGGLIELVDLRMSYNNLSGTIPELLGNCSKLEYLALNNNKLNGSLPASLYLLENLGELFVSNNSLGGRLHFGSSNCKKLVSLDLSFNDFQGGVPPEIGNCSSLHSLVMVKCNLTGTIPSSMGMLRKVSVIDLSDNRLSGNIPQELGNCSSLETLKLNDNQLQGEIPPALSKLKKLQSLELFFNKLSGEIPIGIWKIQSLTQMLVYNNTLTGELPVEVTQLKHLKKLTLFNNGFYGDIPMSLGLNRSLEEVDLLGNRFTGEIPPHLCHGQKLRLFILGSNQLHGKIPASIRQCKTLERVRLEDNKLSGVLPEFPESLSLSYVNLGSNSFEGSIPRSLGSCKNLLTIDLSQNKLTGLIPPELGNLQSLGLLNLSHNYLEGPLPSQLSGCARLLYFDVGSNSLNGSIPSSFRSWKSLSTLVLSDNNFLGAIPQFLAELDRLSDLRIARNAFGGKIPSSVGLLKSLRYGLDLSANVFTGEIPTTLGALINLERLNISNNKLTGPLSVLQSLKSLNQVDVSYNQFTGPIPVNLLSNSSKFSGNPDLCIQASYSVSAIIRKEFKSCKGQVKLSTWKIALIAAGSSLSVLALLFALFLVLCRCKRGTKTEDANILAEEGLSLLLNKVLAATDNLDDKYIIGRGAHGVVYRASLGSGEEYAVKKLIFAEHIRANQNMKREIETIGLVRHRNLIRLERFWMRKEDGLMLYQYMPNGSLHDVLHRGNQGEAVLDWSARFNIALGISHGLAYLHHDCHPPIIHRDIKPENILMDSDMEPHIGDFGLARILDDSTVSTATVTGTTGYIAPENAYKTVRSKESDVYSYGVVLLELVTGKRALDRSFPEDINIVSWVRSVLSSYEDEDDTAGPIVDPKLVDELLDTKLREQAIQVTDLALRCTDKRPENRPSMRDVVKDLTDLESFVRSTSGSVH
As to the kind of experiment: sub-heading of Example 9, supported by alkalinization and photoaffinity labeling of transgenic tobacco cells. As for the experimental part: To clarify whether AtPEPR2 binds to AtPep1, the AtPEPR2 coding region was fused to the CaMV 35S promoter and introduced into tobacco suspension-cultured cells by Agrobacterium. Tobacco cells expressing AtPEPR1 and GUS genes were also created as positive and negative controls, respectively. […] These transgenic lines were analyzed for alkalinizing activity as previously described (Pearce et al., Proc. Natl. Acad. Sci. USA 98, 12843-12847, 2001). […] The level of response to AtPep1 for the AtPEPR2-expressing cells was similar to that of AtPEPR1-expressing cells and to Arabidopsis cells (Yamaguchi et al., Proc. Natl. Acad. Sci. USA 103: 10104-10109, 2006, Huffaker et al., Proc. Natl. Acad. Sci. USA 103: 10098-10103, 2006), with a maximal change of 1-1.2 pH units and a half-maximal peptide activity of 0.25 nM.
(§1) For final confirmation, a photoaffinity-labeling experiment was performed using the transgenic tobacco cells. […] After separation of extracted proteins by SDS-PAGE, the labeled proteins were detected on X-ray film. […] Since no specific labeling was detected in wild type tobacco and GUS expressing cells, the proteins labeled specifically by ¹²⁵I₁-azido-Cys-AtPep1 in AtPEPR1 and AtPEPR2 expressing cells were products from the AtPEPR1 and AtPEPR2 genes.

Experiment [3] addresses T1, AtPEPR1. Nature of the experiment: saturation binding of radiolabeled peptide to Arabidopsis suspension cultured cells, Scatchard analysis. An excerpt:
An analog of AtPep1 was synthesized with a Tyr residue attached to its N-terminus and radiolabeled with ¹²⁵I to quantify binding. The Tyr analog and mono- and di-iodo-Tyr-AtPep1 analogs were separated by HPLC, and the concentration-dependent activities of AtPep1 and these analogs where tested in the alkalinization assay. […] The mono-iodinated Tyr-AtPep1 comprised about 95% of the iodinated proteins and was employed for binding studies.

Experiment [4] concerns the target T1, AtPEPR1. As to the kind of experiment: photoaffinity labeling (0.25 nM) of transgenic tobacco cells expressing AtPEPR1, SDS-PAGE and X-ray film. As for the experimental part:
(§2) This wash was repeated twice. The cells were resuspended in 1 mL MS medium and irradiated with UV-B for 10 min on ice to photoactivate the azido group to effect the crosslinking. The cells were washed with 1 mL MS medium, centrifuged as above, and resuspended in 400 μL of 5% SDS. The cells were disrupted by boiling for 30 min, and the insoluble debris was removed by centrifugation at 10,000×g. […] After centrifugation at 10,000×g, the pellet was recovered and dissolved in 100 μL of Laemmli sample buffer containing 5% SDS, boiled for 10 min, and separated using 8% SDS-PAGE. The gels were dried and exposed to X-ray film for 50 hr to visualize labeled proteins. In competition assays, unlabeled AtPep1 and suramin were added to the cells and incubated for 10 min before adding ¹²⁵I-azido-Cys-AtPep1. The same procedures described above were employed to detect labeled proteins.
as §1

Experiment [5] deals with T2, AtPEPR2. As to the kind of experiment: photoaffinity labeling (0.25 nM) of transgenic tobacco cells expressing AtPEPR2, SDS-PAGE and X-ray film. Here is the method:
as §2, §1

No end group written: not given here. *: point of attachment. APDP = N-(4-[p-azidosalicylamido]butyl)-3'-(2'-pyridyldithio)propionamide, photoaffinity cross-linker coupled via disulfide to Cys, [N-]=[N+]=Nc1ccc(C(=O)NCCCCNC(=O)CCS*)c(O)c1; 125I = [125I]*

As to OsPep3a (peptide), in the experiment with OsPEPR1 (rice), the half-maximal activity, alkalinization of tobacco cells expressing OsPEPR1 stood at 0.25 nM and the medium pH increase, tobacco cells expressing OsPEPR1 is 1.2 pH unit.
As to ZmPep4a (peptide), in the experiment with OsPEPR1 (rice), the half-maximal activity, alkalinization of tobacco cells expressing OsPEPR1 amounted to 0.25 nM and the medium pH increase, tobacco cells expressing OsPEPR1 was found to be 1.2 pH unit.

B1: AtPep5 (peptide)
peptide: GLPGKKNVLKKSRESSGKPGGTN
Take B1: in the experiment with AtPEPR1 [1], the “change in medium pH of transgenic tobacco cells expressing AtPEPR1 at 2.5 nM peptide” value (“change in medium pH” for short) is at most 0.6 pH units; the “half-maximal activity, alkalinization of tobacco cells expressing AtPEPR1” value was determined as 0.25 nM; the “maximal change of medium pH, tobacco cells expressing AtPEPR1” value (from here on “maximal change of medium pH”) came out at 1.2 pH units.

B2: AtPep6 (peptide)
peptide: ITAVLRRRPRPPPYSSGRPGQNN
Consider B2, for which, in the experiment with AtPEPR1 [1], the “change in medium pH” value was at most 0.6 pH units; the “half-maximal activity, alkalinization of tobacco cells expressing AtPEPR1” value worked out at 0.25 nM; the “maximal change of medium pH” value worked out at 1.2 pH units.

B3: AtPep7 (peptide)
peptide: VSGNVAARKGKQQTSSGKGGGTN
As for B3, the “half-maximal activity, alkalinization of tobacco cells expressing AtPEPR1” value with AtPEPR1 [1] amounted to 2.5 nM.

B4: AtPep1 (peptide)
peptide: ATKVKAKQRGKEKVSSGRPGQHN
notes: 23 amino acid peptide, chemically synthesized, not post-translationally modified; also called Arabidopsis Peptide 1; native AtPep1
As to B4, in the experiment with AtPEPR2 [2], the binding result is on record as “binds”. Moreover, in the experiment with AtPEPR1 [1], the “half-maximal activity, alkalinization of tobacco cells expressing AtPEPR1” value was determined as 0.25 nM and the “maximal change of medium pH” value was 1.2 pH units.

B5: 125I1-Tyr-AtPep1 (peptide)
peptide: Y(125I)ATKVKAKQRGKEKVSSGRPGQHN
notes: also called mono-iodinated Tyr-AtPep1
Regarding B5, the affinity with AtPEPR1 [3], expressed as Kd, was 0.25 nM.

B6: 125I-azido-Cys-AtPep1 (peptide)
peptide: C(APDP)ATKVKAKQRGKEKVSSGRPGQHN
modifications: also: mono-iodinated with 125I, site not given here
notes: also called 125I1-azido-Cys-AtPep1
Take B6: the binding result with AtPEPR1 [4] and in the experiment with AtPEPR2 [5] was “binds” in each case.

B7: AtPep4 (peptide)
peptide: EIKARGKNKTKPTPSSGKGGKHN
In the case of B7, in the experiment with AtPEPR1 [1], the “half-maximal activity, alkalinization of tobacco cells expressing AtPEPR1” value worked out at 2.5 nM.

B8: AtPep2 (peptide)
peptide: SLNVMRKGIRKQPVSSGKRGGVN
As for B8, in the experiment with AtPEPR1 [1], the “change in medium pH” value is at most 0.6 pH units; the “half-maximal activity, alkalinization of tobacco cells expressing AtPEPR1” value is 0.25 nM; the “maximal change of medium pH” value was found to be 1.2 pH units.

These data come from patent publication US20090300802A1 (WASHINGTON STATE UNIVERSITY RESEARCH FOUNDATION, published 2009).
